Data taken from US20170015742A1 (published 2017).
Numbering of substitutions follows the chain as printed. Numbers in names are those of the source.

B1: CL-33675_GS_4G8.5 (PR-1612496) (bispecific antibody, human IgG1, kappa, L234A L235A)
heavy: EVTLRESGPALVKPTQTLTLTCTFSGFSLSTYGMGVGWIRQPPGKALEWLANIWWDDDKYYNPSLKNRLTISKDTSKNQVVLTMTNMDPVDTATYYCARIESSGPKYSFDYWGQGTMVTVSSGGGGSGGGGSEIQLVQSGSELKKPGASVKVSCKASGYTFTNYGMYWVRQAPGQGLEYMGWINTETGKPTYADDFKGRFVFSLDTSVSTAYLQISSLKAEDTAVYFCARTNYYYRSYIFYFDYWGQGTMVTVSSASTKGPSVFPLAPSSKSTSGGTAALGCLVKDYFPEPVTVSWNSGALTSGVHTFPAVLQSSGLYSLSSVVTVPSSSLGTQTYICNVNHKPSNTKVDKKVEPKSCDKTHTCPPCPAPEAAGGPSVFLFPPKPKDTLMISRTPEVTCVVVDVSHEDPEVKFNWYVDGVEVHNAKTKPREEQYNSTYRVVSVLTVLHQDWLNGKEYKCKVSNKALPAPIEKTISKAKGQPREPQVYTLPPSREEMTKNQVSLTCLVKGFYPSDIAVEWESNGQPENNYKTTPPVLDSDGSFFLYSKLTVDKSRWQQGNVFSCSVMHEALHNAYTQKSLSLSPGK
light: EIVLTQSPGTLSLSPGERATLSCRASSGSIWYSFVSWYQQKPGQAPRLLIYADDQRASGIPDRFSGSGSGTDFTLTISRLEPEDFAVYYCQSYGINIDVVFGGGTKVEIKGGSGGGGSGGATQLTQSPSLSASVGDRVTITCRASESVSTHMHWYQQKPGKQPKLLIYGASNLESGVPSRFSGSGSGTDFTLTISSLQPEDFATYFCQQSWNDPFTFGQGTKLEIKRTVAAPSVFIFPPSDEQLKSGTASVVCLLNNFYPREAKVQWKVDNALQSGNSQESVTEQDSKDSTYSLSSTLTLSKADYEKHKVYACEVTHQGLSSPVTKSFNRGEC
notes: DVD-Ig: outer CL-33675 (PDGF), inner hBDB-4G8.5 (VEGF), linkers GS-H10 / GS-L10(dR); Human IgG1 L234A, L235A, H435A with kappa light chain
B2: 1B10.1_GS_CL-33675 (PR-1611292) (bispecific antibody, human IgG1, kappa, L234A L235A)
heavy: EVQLVESGGGLVQPGGSLRLSCAASGFSFSKYDMAWFRQAPGKGLEWVASITTSGVGTYYRDSVKGRFTVSRDNAKSTLYLQMNSLRAEDTAVYYCARGYGAMDAWGQGTTVTVSSGGGGSGGGGSEVTLRESGPALVKPTQTLTLTCTFSGFSLSTYGMGVGWIRQPPGKALEWLANIWWDDDKYYNPSLKNRLTISKDTSKNQVVLTMTNMDPVDTATYYCARIESSGPKYSFDYWGQGTMVTVSSASTKGPSVFPLAPSSKSTSGGTAALGCLVKDYFPEPVTVSWNSGALTSGVHTFPAVLQSSGLYSLSSVVTVPSSSLGTQTYICNVNHKPSNTKVDKKVEPKSCDKTHTCPPCPAPEAAGGPSVFLFPPKPKDTLMISRTPEVTCVVVDVSHEDPEVKFNWYVDGVEVHNAKTKPREEQYNSTYRVVSVLTVLHQDWLNGKEYKCKVSNKALPAPIEKTISKAKGQPREPQVYTLPPSREEMTKNQVSLTCLVKGFYPSDIAVEWESNGQPENNYKTTPPVLDSDGSFFLYSKLTVDKSRWQQGNVFSCSVMHEALHNAYTQKSLSLSPGK
light: DIQMTQSPSSLSASVGDRVTITCKASQDIDDYLSWYQQKPGKSPKLVIYAATRLADGVPSRFSGSGSGTDYTLTISSLQPEDFATYYCLQSSSTPWTFGGGTKVEIKGGSGGGGSGGEIVLTQSPGTLSLSPGERATLSCRASSGSIWYSFVSWYQQKPGQAPRLLIYADDQRASGIPDRFSGSGSGTDFTLTISRLEPEDFAVYYCQSYGINIDVVFGGGTKVEIKRTVAAPSVFIFPPSDEQLKSGTASVVCLLNNFYPREAKVQWKVDNALQSGNSQESVTEQDSKDSTYSLSSTLTLSKADYEKHKVYACEVTHQGLSSPVTKSFNRGEC
notes: DVD-Ig: outer hBEW-1B10.1 (VEGF), inner CL-33675 (PDGF), linkers GS-H10 / GS-L10(dR); Human IgG1 L234A, L235A, H435A with kappa light chain
B3: 3E2.1_GS_9E10.1 (PR-1612500) (bispecific antibody, human IgG1, kappa, L234A L235A)
heavy: EVQLVQSGAEVKKPGSSVKVSCKASGYTFTESYMYWVKQAPGQGLELIGRIDPEDGSTDYVEKFKNKATLTADKSTSTAYMELSSLRSEDTAVYFCARFGARSYFYPMDAWGQGTTVTVSSGGGGSGGGGSEIQLVQSGSELKKPGASVKVSCKASGYTFTNYGMYWVKQAPGQGLEYMGWIDTETGRPTYADDFKGRFVFSLDTSVSTAYLQISSLKAEDTAVYFCARWSGDTTGIRGPWFAYWGQGTLVTVSSASTKGPSVFPLAPSSKSTSGGTAALGCLVKDYFPEPVTVSWNSGALTSGVHTFPAVLQSSGLYSLSSVVTVPSSSLGTQTYICNVNHKPSNTKVDKKVEPKSCDKTHTCPPCPAPEAAGGPSVFLFPPKPKDTLMISRTPEVTCVVVDVSHEDPEVKFNWYVDGVEVHNAKTKPREEQYNSTYRVVSVLTVLHQDWLNGKEYKCKVSNKALPAPIEKTISKAKGQPREPQVYTLPPSREEMTKNQVSLTCLVKGFYPSDIAVEWESNGQPENNYKTTPPVLDSDGSFFLYSKLTVDKSRWQQGNVFSCSVMHEALHNAYTQKSLSLSPGK
light: ETVLTQSPATLSLSPGERATLSCRASESVSTLMHWYQQKPGQQPRLLIYGASNLESGVPARFSGSGSGTDFTLTISSLEPEDFAVYFCQQSWNDPWTFGGGTKVEIKGGSGGGGSGGDIRMTQSPSSLSASVGDRVTIECLASEDIYSDLAWYQQKPGKSPKLLIYNANGLQNGVPSRFSGSGSGTDYSLTISSLQPEDVATYFCQQYNYFPGTFGQGTKLEIKRTVAAPSVFIFPPSDEQLKSGTASVVCLLNNFYPREAKVQWKVDNALQSGNSQESVTEQDSKDSTYSLSSTLTLSKADYEKHKVYACEVTHQGLSSPVTKSFNRGEC
notes: DVD-Ig: outer hBFU-3E2.1 (PDGF), inner hBEW-9E10.1 (VEGF), linkers GS-H10 / GS-L10(dR); Human IgG1 L234A, L235A, H435A with kappa light chain
B4: 3E2.1_GS_9E10.6 (PR-1612501) (bispecific antibody, human IgG1, kappa, L234A L235A)
heavy: EVQLVQSGAEVKKPGSSVKVSCKASGYTFTESYMYWVKQAPGQGLELIGRIDPEDGSTDYVEKFKNKATLTADKSTSTAYMELSSLRSEDTAVYFCARFGARSYFYPMDAWGQGTTVTVSSGGGGSGGGGSEVQLVQSGAEVKKPGSSVKVSCKASGYTFTNYGMYWVRQAPGQGLEWMGWIDTETGRPTYADDFKGRFTFTADKSTSTAYMELSSLRSEDTAVYYCARWSGDTTGIRGPWFAYWGQGTLVTVSSASTKGPSVFPLAPSSKSTSGGTAALGCLVKDYFPEPVTVSWNSGALTSGVHTFPAVLQSSGLYSLSSVVTVPSSSLGTQTYICNVNHKPSNTKVDKKVEPKSCDKTHTCPPCPAPEAAGGPSVFLFPPKPKDTLMISRTPEVTCVVVDVSHEDPEVKFNWYVDGVEVHNAKTKPREEQYNSTYRVVSVLTVLHQDWLNGKEYKCKVSNKALPAPIEKTISKAKGQPREPQVYTLPPSREEMTKNQVSLTCLVKGFYPSDIAVEWESNGQPENNYKTTPPVLDSDGSFFLYSKLTVDKSRWQQGNVFSCSVMHEALHNAYTQKSLSLSPGK
light: B3 light with E139T, S189T
notes: DVD-Ig: outer hBFU-3E2.1 (PDGF), inner hBEW-9E10.6 (VEGF), linkers GS-H10 / GS-L10(dR); Human IgG1 L234A, L235A, H435A with kappa light chain
B5: 3E2.1_GS_4G8.5 (PR-1612499) (bispecific antibody, human IgG1, kappa, L234A L235A)
heavy: EVQLVQSGAEVKKPGSSVKVSCKASGYTFTESYMYWVKQAPGQGLELIGRIDPEDGSTDYVEKFKNKATLTADKSTSTAYMELSSLRSEDTAVYFCARFGARSYFYPMDAWGQGTTVTVSSGGGGSGGGGSEIQLVQSGSELKKPGASVKVSCKASGYTFTNYGMYWVRQAPGQGLEYMGWINTETGKPTYADDFKGRFVFSLDTSVSTAYLQISSLKAEDTAVYFCARTNYYYRSYIFYFDYWGQGTMVTVSSASTKGPSVFPLAPSSKSTSGGTAALGCLVKDYFPEPVTVSWNSGALTSGVHTFPAVLQSSGLYSLSSVVTVPSSSLGTQTYICNVNHKPSNTKVDKKVEPKSCDKTHTCPPCPAPEAAGGPSVFLFPPKPKDTLMISRTPEVTCVVVDVSHEDPEVKFNWYVDGVEVHNAKTKPREEQYNSTYRVVSVLTVLHQDWLNGKEYKCKVSNKALPAPIEKTISKAKGQPREPQVYTLPPSREEMTKNQVSLTCLVKGFYPSDIAVEWESNGQPENNYKTTPPVLDSDGSFFLYSKLTVDKSRWQQGNVFSCSVMHEALHNAYTQKSLSLSPGK
light: ETVLTQSPATLSLSPGERATLSCRASESVSTLMHWYQQKPGQQPRLLIYGASNLESGVPARFSGSGSGTDFTLTISSLEPEDFAVYFCQQSWNDPWTFGGGTKVEIKGGSGGGGSGGATQLTQSPSLSASVGDRVTITCRASESVSTHMHWYQQKPGKQPKLLIYGASNLESGVPSRFSGSGSGTDFTLTISSLQPEDFATYFCQQSWNDPFTFGQGTKLEIKRTVAAPSVFIFPPSDEQLKSGTASVVCLLNNFYPREAKVQWKVDNALQSGNSQESVTEQDSKDSTYSLSSTLTLSKADYEKHKVYACEVTHQGLSSPVTKSFNRGEC
notes: DVD-Ig: outer hBFU-3E2.1 (PDGF), inner hBDB-4G8.5 (VEGF), linkers GS-H10 / GS-L10(dR); Human IgG1 L234A, L235A, H435A with kappa light chain
B6: 1E3.4_GS_3E2.1 (PR-1612495) (bispecific antibody, human IgG1, kappa, L234A L235A)
heavy: EIQLVQSGSELKKPGASVKVSCKASGYPFTNSGMYWVKQAPGQGLEYMGWINTEAGKPTYADDFKGRFVFSLDTSVSTAYLQISSLKAEDTAVYFCARWGYISDNSYGWFDYWGQGTLVTVSSGGGGSGGGGSEVQLVQSGAEVKKPGSSVKVSCKASGYTFTESYMYWVKQAPGQGLELIGRIDPEDGSTDYVEKFKNKATLTADKSTSTAYMELSSLRSEDTAVYFCARFGARSYFYPMDAWGQGTTVTVSSASTKGPSVFPLAPSSKSTSGGTAALGCLVKDYFPEPVTVSWNSGALTSGVHTFPAVLQSSGLYSLSSVVTVPSSSLGTQTYICNVNHKPSNTKVDKKVEPKSCDKTHTCPPCPAPEAAGGPSVFLFPPKPKDTLMISRTPEVTCVVVDVSHEDPEVKFNWYVDGVEVHNAKTKPREEQYNSTYRVVSVLTVLHQDWLNGKEYKCKVSNKALPAPIEKTISKAKGQPREPQVYTLPPSREEMTKNQVSLTCLVKGFYPSDIAVEWESNGQPENNYKTTPPVLDSDGSFFLYSKLTVDKSRWQQGNVFSCSVMHEALHNAYTQKSLSLSPGK
light: ATQLTQSPSSLSASVGDRVTISCRASEGVYSYMHWYQQKPGKQPKLLIYKASNLASGVPSRFSGSGSGTDFTLTISSLQPEDFATYFCHQNWNDPLTFGQGTKLEIKGGSGGGGSGGETVLTQSPATLSLSPGERATLSCRASESVSTLMHWYQQKPGQQPRLLIYGASNLESGVPARFSGSGSGTDFTLTISSLEPEDFAVYFCQQSWNDPWTFGGGTKVEIKRTVAAPSVFIFPPSDEQLKSGTASVVCLLNNFYPREAKVQWKVDNALQSGNSQESVTEQDSKDSTYSLSSTLTLSKADYEKHKVYACEVTHQGLSSPVTKSFNRGEC
notes: DVD-Ig: outer hBEW-1E3.4 (VEGF), inner hBFU-3E2.1 (PDGF), linkers GS-H10 / GS-L10(dR); Human IgG1 L234A, L235A, H435A with kappa light chain

target: PDGF-BB (UniProt P01127 82-190); experiment: SPR (Biacore), DVD-Ig captured by anti-human Fc, antigen injected
Sequence (P01127 82-190): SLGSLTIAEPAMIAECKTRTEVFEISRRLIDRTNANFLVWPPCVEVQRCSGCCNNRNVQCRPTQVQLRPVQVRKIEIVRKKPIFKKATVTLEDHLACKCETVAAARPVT
Procedure: (§1) For example, approximately 9000 RU of goat anti-human Fc specific polyclonal antibody (Thermo Fisher Scientific Inc., Rockford, Ill.) diluted in 10 mM sodium acetate (pH 4.5) is directly immobilized across a CM5 research grade biosensor chip using a standard amine coupling kit according to manufacturer's instructions and procedures at 25 μg/ml. Unreacted moieties on the biosensor surface were blocked with ethanolamine. For kinetic analysis, rate equations derived from the 1:1 Langmuir binding model were fitted simultaneously to multiple antigen injections (using global fit analysis) with the use of Scrubber 2 (BioLogic Software), Biacore Biaevaluation 4.0.1 software or Biacore T100 Evaluation software. Purified antibodies or DVD-Ig molecules were diluted in running buffer for capture across goat anti-human Fc reaction surfaces. Antibodies or DVD-Ig molecules to be captured as a ligand (1 μg/ml) were injected over reaction matrices at a flow rate of 10 μl/minute. During the assay, all measurements were referenced against the capture surface alone (i.e., with no captured antibody or DVD-Ig molecule). […] The equilibrium dissociation constant KD (M) of the reaction between antibodies and the target antigen was then calculated from the kinetic rate constants by the following formula: KD=Koff/Kₒₙ. Binding was recorded as a function of time and kinetic rate constants were calculated.

Row | Binder | Kd [nM] | kon [M⁻¹ s⁻¹]
1 | B1 | 0.00023 | 3.8e+07
2 | B2 | 0.00054 | 2.2e+07
3 | B3 | ≤ 0.0043 | ≥ 9e+07
4 | B4 | ≤ 0.0053 | ≥ 9e+07
5 | B5 | ≤ 0.0038 | ≥ 9e+07
6 | B6 | 0.012 | 4.5e+07

target: VEGF-A (UniProt P15692-4 27-191, limits assumed); experiment: as above
Sequence (P15692 other isoform, or with tags, fused parts or gaps limits assumed): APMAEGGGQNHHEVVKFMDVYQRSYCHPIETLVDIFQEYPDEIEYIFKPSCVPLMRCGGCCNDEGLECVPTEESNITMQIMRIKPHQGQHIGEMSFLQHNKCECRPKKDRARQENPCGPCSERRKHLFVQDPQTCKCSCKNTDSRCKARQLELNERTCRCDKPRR
Procedure: as §1

Row | Binder | Kd [nM] | kon [M⁻¹ s⁻¹]
7 | B1 | 0.18 | 230000
8 | B2 | 0.062 | 2.1e+06
9 | B3 | 0.019 | 630000
10 | B4 | 0.041 | 570000
11 | B5 | 0.17 | 240000
12 | B6 | 0.0098 | 5.3e+06
